Common to all, as to format: biochemical, human
Substrate in data set [1]: NCCC(=O)c1ccccc1N
The data set is described as follows: Kynuramine oxidative deamination kinetics (saturation, optimization) with MAO-B. The following applies: other: kynuramine 2-500 μM, 15 min, mean ± SEM; pH 7.4; 37.0 °C. How it is done: (§1) The optimized incubation time and human recombinant MAO concentration were selected in the linear range from the time-dependent and MAO concentration-dependent studies (Supplemental Data). Briefly, samples were prepared in potassium phosphate buffer (100 mM, pH 7.4) with a final concentration of MAO in the reaction solution of 0.01 mg/mL, incubated at 37°C for 15 min. Saturation of kynuramine metabolism with MAO-A/B was carried out at concentrations of 2, 5, 10, 25, 50, 100, 250, 500 μM. The enzymatic reactions (200μL) were stopped by 2 N NaOH (75 μL) followed with 70% perchloric acid (25 μL). The samples were vortexed and centrifuged for 5 min at 10,000×g. The supernatant was analyzed by HPLC as described above.
(§2) GraphPad Prism 5 was applied to fit a Michaelis-Menten model to the data to obtain the Km values in the saturation experiments. In the screening experiments, significant differences between control and treated group were determined by a one-way ANOVA followed by Dunnett's posttest (p < 0.05). […] The maximum single doses are from published sources. The relevant GI concentration is the lesser of either solubility or the concentration after a single dose. […]
(§3) Kynuramine (10 µM) was incubated with MAO-A (0.01 mg/mL) in 200 µL potassium phosphate buffer (100 mM, pH 7.4) for 10, 20, 30, 40, and 60 min. The formation of 4-hydroxyquinoline was analyzed after the enzymatic reaction. […]

Substrate in data set [2]: NCCC(=O)c1ccccc1N
The data set is described as follows: Inhibition mechanism studies (competition, time dependence) with MAO-B. To be noted: other: competition study control, kynuramine 2-450 μM.

Substrate in data set [3]: NCCC(=O)c1ccccc1N
As to the kind of experiment: Kynuramine oxidative deamination kinetics (saturation, optimization) with MAO-A. To be noted: other: kynuramine 2-500 μM, 15 min, mean ± SEM; pH 7.4; 37.0 °C. How it is done: as §1, §2, §3

Substrate in data set [4]: NCCC(=O)c1ccccc1N
As to the kind of experiment: Inhibition mechanism studies (competition, time dependence) with MAO-A. To be noted: other: competition study control, kynuramine 2-450 μM.

“And” between values parts separate entries of the source, which are not always exact repeats. Identical values can stand only once.

Results on 4 proteins are retold here after article PMC6364133, “Selectivity of Dietary Phenolics for Inhibition of Human Monoamine Oxidases A and B” (BioMed Research International, 2019).

As a reminder, the Km is the concentration of substrate that gives half-maximal velocity.

B1: human recombinant MAO-B (Homo sapiens) (protein)
chain: MSNKCDVVVVGGGISGMAAAKLLHDSGLNVVVLEARDRVGGRTYTLRNQKVKYVDLGGSYVGPTQNRILRLAKELGLETYKVNEVERLIHHVKGKSYPFRGPFPPVWNPITYLDHNNFWRTMDDMGREIPSDAPWKAPLAEEWDNMTMKELLDKLCWTESAKQLATLFVNLCVTAETHEVSALWFLWYVKQCGGTTRIISTTNGGQERKFVGGSGQVSERIMDLLGDRVKLERPVIYIDQTRENVLVETLNHEMYEAKYVISAIPPTLGMKIHFNPPLPMMRNQMITRVPLGSVIKCIVYYKEPFWRKKDYCGTMIIDGEEAPVAYTLDDTKPEGNYAAIMGFILAHKARKLARLTKEERLKKLCELYAKVLGSLEALEPVHYEEKNWCEEQYSGGCYTTYFPPGILTQYGRVLRQPVDRIYFAGTETATHWSGYMEGAVEAGERAAREILHAMGKIPEDEIWQSEPESVDVPAQPITTTFLERHLPSVPGLLRLIGLTTIFSATALGFLAHKRGLLVRV
notes: purchased BD Biosciences (San Jose, CA) or Corning Discovery Labware (Woburn, MA)
B1: in data set [1], the Michaelis constant (Km) worked out at 18.0 ± 2.3 µM and the Vmax was 7.35 ± 0.69 nmol/min/mg.

B2: MAO-B (Homo sapiens) (protein)
chain: B1 chain
notes: as for B1
For the protein B2, in data set [2], the Michaelis-Menten constant (Km) was 14.4 ± 1.2 µM and the Vmax was 3.44 ± 0.07 nmol/min/mg protein.

B3: human recombinant MAO-A (Homo sapiens) (protein)
chain: MENQEKASIAGHMFDVVVIGGGISGLSAAKLLTEYGVSVLVLEARDRVGGRTYTIRNEHVDYVDVGGAYVGPTQNRILRLSKELGIETYKVNVSERLVQYVKGKTYPFRGAFPPVWNPIAYLDYNNLWRTIDNMGKEIPTDAPWEAQHADKWDKMTMKELIDKICWTKTARRFAYLFVNINVTSEPHEVSALWFLWYVKQCGGTTRIFSVTNGGQERKFVGGSGQVSERIMDLLGDQVKLNHPVTHVDQSSDNIIIETLNHEHYECKYVINAIPPTLTAKIHFRPELPAERNQLIQRLPMGAVIKCMMYYKEAFWKKKDYCGCMIIEDEDAPISITLDDTKPDGSLPAIMGFILARKADRLAKLHKEIRKKKICELYAKVLGSQEALHPVHYEEKNWCEEQYSGGCYTAYFPPGIMTQYGRVIRQPVGRIFFAGTETATKWSGYMEGAVEAGERAAREVLNGLGKVTEKDIWVQEPESKDVPAVEITHTFWERNLPSVSGLLKIIGFSTSVTALGFVLYKYKLLPRS
notes: as for B1
Regarding B3, in data set [3], the Michaelis-Menten constant (Km) is 23.1 ± 0.8 µM and 23 µM; the Vmax was determined as 10.2 ± 0.2 nmol/min/mg.

B4: MAO-A (Homo sapiens) (protein)
chain: B3 chain
notes: as for B1
For the protein B4, in data set [4], the Km was 8.46 ± 1.56 µM and the Vmax is recorded as 17.4 ± 0.7 nmol/min/mg protein.
